# Source: patent US20190352395A1 (REDWOOD BIOSCIENCE, published 2019)
# Where a chain is given by its changes, count along the chain named.
# T1: CD22-Fc (R&D Systems Cat. No. 1968SL) (human, UniProt P20273 20-687)
# T1 construct: Bought reagent; also called CD22 antigen; huCD22-Fc; not shown: Fc part of the bought fusion
# T1 sequence (looked up): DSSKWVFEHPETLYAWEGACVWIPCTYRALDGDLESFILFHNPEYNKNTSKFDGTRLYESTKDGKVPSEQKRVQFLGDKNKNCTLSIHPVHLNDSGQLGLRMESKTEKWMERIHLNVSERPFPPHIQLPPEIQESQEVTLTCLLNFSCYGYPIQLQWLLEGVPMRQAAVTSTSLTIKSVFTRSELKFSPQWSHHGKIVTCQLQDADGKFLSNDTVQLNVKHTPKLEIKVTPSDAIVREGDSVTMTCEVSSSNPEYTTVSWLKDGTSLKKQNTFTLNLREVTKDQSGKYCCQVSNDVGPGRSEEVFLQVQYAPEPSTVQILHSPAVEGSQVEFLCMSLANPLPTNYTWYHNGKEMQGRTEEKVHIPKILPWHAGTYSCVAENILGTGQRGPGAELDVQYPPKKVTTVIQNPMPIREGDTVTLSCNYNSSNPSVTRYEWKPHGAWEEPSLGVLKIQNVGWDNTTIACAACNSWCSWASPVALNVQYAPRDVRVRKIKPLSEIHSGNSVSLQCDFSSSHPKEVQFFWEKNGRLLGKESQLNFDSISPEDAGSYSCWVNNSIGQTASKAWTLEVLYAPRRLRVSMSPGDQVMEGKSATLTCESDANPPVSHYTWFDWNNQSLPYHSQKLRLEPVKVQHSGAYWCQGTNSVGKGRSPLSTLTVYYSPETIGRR
# B1: humanized RFB4 antibody VH6/VK2 (antibody, human IgG1, V domains shown)
# VH: EVQLVESGGGLVKPGGSLKLSCAASGFAFSIYDMSWVRQAPGKGLEWVAYISSGGGTTYYPDTVKGRFTISRDNAKNSLYLQMSSLRAEDTAMYYCARHSGYGSSYGVLFAYWGQGTLVTVSS
# VL: DIQMTQSPSSLSASVGDRVTITCRASQDISNYLNWYQQKPGKAVKLLIYYTSILHSGVPSRFSGSGSGTDYTLTISSLQPEDFATYFCQQGNTLPWTFGGGTKVEIK
# B2: humanized RFB4 antibody VH5/VK2 (antibody, human IgG1, V domains shown)
# VH: B1 VH with S84N
# VL: B1 VL
# B3: humanized RFB4 antibody VH5/VK4 (antibody, human IgG1, V domains shown)
# VH: B1 VH with S84N
# VL: B1 VL with L11V, V44P
# B4: humanized RFB4 antibody VH4/VK2 (antibody, human IgG1, V domains shown)
# VH: B1 VH with K19R
# VL: B1 VL
# B5: humanized RFB4 antibody VH5/VK1 (antibody, human IgG1, V domains shown)
# VH: B1 VH with S84N
# VL: B1 VL with P80Q
# B6: humanized RFB4 antibody VH3/VK2 (antibody, human IgG1, V domains shown)
# VH: B1 VH with S78T
# VL: B1 VL
# B7: humanized RFB4 antibody VH3/VK1 (antibody, human IgG1, V domains shown)
# VH: B1 VH with S78T
# VL: B1 VL with P80Q
# B8: humanized RFB4 antibody VH4/VK4 (antibody, human IgG1, V domains shown)
# VH: B1 VH with K19R
# VL: B1 VL with L11V, V44P
# B9: humanized RFB4 antibody VH4/VK1 (antibody, human IgG1, V domains shown)
# VH: B1 VH with K19R
# VL: B1 VL with P80Q
# B10: humanized RFB4 antibody VH6/VK4 (antibody, human IgG1, V domains shown)
# VH: B1 VH
# VL: B1 VL with L11V, V44P
# B11: humanized RFB4 antibody VH3/VK4 (antibody, human IgG1, V domains shown)
# VH: B1 VH with S78T
# VL: B1 VL with L11V, V44P
# B12: humanized RFB4 antibody VH6/VK1 (antibody, human IgG1, V domains shown)
# VH: B1 VH
# VL: B1 VL with P80Q
# Target: T1, CD22-Fc (R&D Systems Cat. No. 1968SL)
# Experiment: competition ELISA on coated CD22-Fc; competitor biotinylated chimeric RFB4
# Procedure: 96 well MaxiSorp plates (Nunc) were coated with 1.0 μg/ml CD22-Fc (R&D Systems Cat. No. 1968SL) in Dulbecco's PBS (PAA Laboratories, Yeovil, UK) (60 μl final volume) at 4° C. overnight. Plates were blocked with Dulbecco's PBS-2% BSA for 1 hour at room temperature. Plates were washed 3 times with wash buffer (0.05% Tween20 in Dulbecco's-PBS). […] All samples were tested in duplicate. Plates were incubated for 1 h at room temperature and washed 3 times with wash buffer. 60 μl of a 1 in 1000 dilution of Streptavidin horse radish peroxidase (HRP) (Sigma-Aldrich) was added and incubated for 1 hour at room temperature. Plates were washed 3 times with wash buffer and 60 μl of 3,3′,5,5′-tetramethybenzidine (TMB) substrate (Invitrogen) was added and incubated at room temperature in the dark to allow the colour to develop. The reaction was stopped by adding 50 μl of 3M HCl. Plates were read at 450 nm using Dynex plate reader.
row,Binder,IC50 relative to Chimeric RFB4 IgG1
1,B1,1 relative to Chimeric RFB4 IgG1
2,B2,1 relative to Chimeric RFB4 IgG1
3,B3,1 relative to Chimeric RFB4 IgG1
4,B4,1.1 relative to Chimeric RFB4 IgG1
5,B5,0.9 relative to Chimeric RFB4 IgG1
6,B6,1 relative to Chimeric RFB4 IgG1
7,B7,0.8 relative to Chimeric RFB4 IgG1
8,B8,1 relative to Chimeric RFB4 IgG1
9,B9,0.9 relative to Chimeric RFB4 IgG1
10,B10,1 relative to Chimeric RFB4 IgG1
11,B11,1.1 relative to Chimeric RFB4 IgG1
12,B12,0.9 relative to Chimeric RFB4 IgG1
